Laboratory results from patent publication US20070154954A1, “Fluorescence polarization assay” (TRANSTECH PHARMA, INC., priority 2004, published 2007).
Where two headings read alike, the source gives them in different places.

B1: unlabeled S100b (ligand)
chain: MSELEKAMVALIDVFHQYSGREGDKHKLKKSELKELINNELSHFLEEIKEQEVVDKVMETLDNDGDGECDFQEFMAFVAMVTTACHEFFEHE

Experiments:
recombinant human sRAGE [1] = biological target: recombinant human sRAGE (Homo sapiens, UniProt Q15109); assay: Fluorescence polarization competition assay: displacement of fluorescent amyloid beta (1-40) from sRAGE; conditions: read-out: EC50 for competing with fluoresceinated amyloid beta (1-40) for binding to sRAGE, unlabeled ligand, sRAGE 40 nM, fluorescent amyloid beta (1-40) 50 nM, 37° C. 1 hour, FIG. 4, mean of four measurements
Procedure: (§1) Once dissolved, the peptide is diluted with phosphate-buffered saline (calcium-free) to a concentration of 1 mg/ml and allowed to incubate at 37° C. for 24-48 hours.
The complex was incubated at 37° C. for 1 hour and then the milli-polarization (mP) value was read using an Envision plate reader (Perkin Ekmer). In some cases, depending on the purity of the human sRAGE, 0.1% bovine serum albumin (BSA) or 0.05% of the detergent TWEEN 20 may be added to the phospahte buffered saline to reduce background binding of the sRAGE to the assay well.

recombinant human sRAGE [2] = biological target: T1, recombinant human sRAGE (human, UniProt Q15109 23-339); assay: fluorescence polarization, displacement of fluorescent amyloid beta (1-40) from sRAGE
T1 construct: also called soluble RAGE
Procedure: as §1
The complex was incubated at 37° C. for 1 hour and then the milli-polarization (mP) value was read using an Envision plate reader (Perkin Ekmer).

Sequence of recombinant human sRAGE (Homo sapiens, UniProt Q15109) (Q15109 23-339): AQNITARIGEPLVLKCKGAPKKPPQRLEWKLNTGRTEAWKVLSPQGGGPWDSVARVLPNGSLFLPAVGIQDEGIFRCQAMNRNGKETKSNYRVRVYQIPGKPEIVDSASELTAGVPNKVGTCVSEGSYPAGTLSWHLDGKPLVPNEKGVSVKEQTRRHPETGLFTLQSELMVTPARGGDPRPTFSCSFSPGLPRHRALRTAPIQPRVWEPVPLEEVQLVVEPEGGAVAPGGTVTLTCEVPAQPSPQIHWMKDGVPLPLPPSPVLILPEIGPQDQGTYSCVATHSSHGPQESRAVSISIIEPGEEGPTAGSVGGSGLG
T1 sequence (Q15109 23-339 limits assumed): as the sequence (Q15109 23-339) above

Molecule	EC50 (recombinant human sRAGE [1]) [nM]	EC50 (recombinant human sRAGE [1]; listed as S100b) [nM]	EC50 (recombinant human sRAGE [2]) [nM]
s100b: unlabeled S100b, calgranulin-like RAGE ligand	~43	43	–
B1	–	–	43
